The record followed here is patent publication US20200347144A1 (SHANGHAI HYAMAB BIOTECH, published 2020).

Substitutions are numbered along the chain they refer to.

The chains are these.
B1: 258F5A8 (antibody, V domains shown)
VH: QVQLVESGGGVVQPGRSLRLSCAASGFTFSSYGMHWVRQAPGKGLEWVAVIWYDGSNKYYADSVKGRFNISRDNSKNTLYLQMNSLRAEDTAVYYCARGPYLYSSGWYDYYYYGMDVWGQGTTVTVSS
VL: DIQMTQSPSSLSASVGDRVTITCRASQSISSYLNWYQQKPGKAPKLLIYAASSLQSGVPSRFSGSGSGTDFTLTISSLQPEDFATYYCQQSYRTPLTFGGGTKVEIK
B2: 259G10E11 (antibody, V domains shown)
VH: B1 VH with N69T
VL: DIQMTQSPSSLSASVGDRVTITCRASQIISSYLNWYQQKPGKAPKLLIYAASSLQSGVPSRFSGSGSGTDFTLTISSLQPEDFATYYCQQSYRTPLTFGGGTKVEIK
B3: 263A11E3 (antibody, V domains shown)
VH: QVQLQESGPGLVKPSETLSLTCAVSGYSISSGYYWGWIRQPPGKGLEWIGSIYHSGSTSYNPSLRSRVTISVDTSKNQFSLKLSSVTAADTAVYYCARDAGGFDYWGQGTLVTVSS
VL: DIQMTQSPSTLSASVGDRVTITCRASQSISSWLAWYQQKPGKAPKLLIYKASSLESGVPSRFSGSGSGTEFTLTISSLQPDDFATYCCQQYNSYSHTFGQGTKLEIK

For one assay, the target named is T1, human 4-1BB, full length, on transfected cells (human, UniProt Q07011 24-255).
T1 construct: whole, on cells; also called CHOK1-h4-1BB
T1 sequence (Q07011 24-255): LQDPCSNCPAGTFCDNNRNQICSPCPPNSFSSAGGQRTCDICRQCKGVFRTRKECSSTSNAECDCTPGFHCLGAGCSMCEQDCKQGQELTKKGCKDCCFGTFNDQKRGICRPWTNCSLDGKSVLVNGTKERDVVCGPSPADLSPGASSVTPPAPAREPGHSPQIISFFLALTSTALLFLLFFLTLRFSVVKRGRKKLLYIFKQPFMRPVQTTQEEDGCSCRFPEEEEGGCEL
The assay is described as follows: FACS, CHOK1-h4-1BB cells; Ab 0.4 ug/ml. Put shortly: (§1)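 CHOK1 stable lines expressing human or monkey 4-1BB were detached with enzyme-free Versene, blocked in 1% goat serum on ice for 30 min and resuspended at 2×10⁶ cells/mL in HBSS with 1% BSA. Purified antibody was bound on ice for 2 h, then cells were fixed in 4% paraformaldehyde and analysed by flow cytometry.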
A general note: In flow cytometry, cells or beads pass a laser one at a time.
B1 yielded an average fluorescence intensity of 591 MFI.
As to B2, the average fluorescence intensity was determined as 625 MFI.
The same measure, in the same setting: for B3 the value was 1120 MFI.

For the next assay, the target named is T2, monkey 4-1BB on CHOK1 cells (monkey).
T2 construct: whole, on cells; also called CHOK1-c4-1BB
The assay can be described thus: FACS, CHOK1-c4-1BB cells; Ab 0.4 ug/ml. The method, boiled down: as §1
B1 returned an average fluorescence intensity of 71.4 MFI.
As to B2, the average fluorescence intensity came to 64.3 MFI.
B3: the average fluorescence intensity came out at 56.5 MFI.

In another assay the target is T1, human 4-1BB, full length, on …. The assay is described as follows: FACS, CHOK1-h4-1BB cells; Ab 0.08 ug/ml. The method, boiled down:
as §1
As to B1, the average fluorescence intensity stood at 252 MFI.
On the same count and under the same terms, for B2 the value was 252 MFI; for B3, 356 MFI.

In another assay the target is T2, monkey 4-1BB on CHOK1 cells. The assay can be described thus: FACS, CHOK1-c4-1BB cells; Ab 0.08 ug/ml. Put shortly:
as §1
B1 came in with an average fluorescence intensity of 26.6 MFI.
Still for that read-out and setting: for B2 the value was 25.4 MFI; for B3, 21.1 MFI.

A further assay addresses T1, human 4-1BB, full length, on …. The assay is described as follows: FACS, CHOK1-h4-1BB cells; Ab 0.016 ug/ml. Put shortly:
as §1
The molecule B1 came in with an average fluorescence intensity of 68 MFI.
For the molecule B2, the average fluorescence intensity is 67.2 MFI.
On the same count and under the same terms, next, B3: 85.6 MFI.

The next assay has the same target. The assay is described as follows: FACS, CHOK1-h4-1BB cells; Ab 0.0032 ug/ml. The method, boiled down:
as §1
For B1, the average fluorescence intensity was determined as 21.1 MFI.
Still for that read-out and setting: for B2 the value was 19.4 MFI; for B3, 22.9 MFI.

In the next assay the target is T3, hFc-tagged human 4-1BB extracellular domain protein (4-1BB-hFc) (human, UniProt Q07011 24-186, limits assumed).
T3 construct: also called immunogen A; 4-1BB^ECD-hFc; not shown: human IgG Fc fragment (hFc) of the pCpC vector
The assay can be described thus: ELISA, coated human 4-1BB-hFc; Ab 10 ug/ml. The protocol:
(§2) The purified immunogen A (4-1BB-hFc), monkey 4-1BB-his, and mouse 4-1BB-his obtained in Example 1 [for the preparation method, see step 1 of Example 1, preparation of immunogen A], of which the extracellular domain of monkey-derived 4-1BB protein (purchased from ACRO biosystems), the extracellular domain of mouse 4-1BB protein (purchased from sino biological) or other immune detection point proteins respectively were diluted with PBS to a final concentration of 1.0 μg/mL, then added with […] per well to 96-well ELISA plate. It was sealed with plastic film and incubated at 4° C. overnight. The next day, the plate was washed twice with the plate-washing solution [PBS containing 0.01% (v/v) Tween20] and blocking solution [PBS containing 0.01% (v/v) Tween 20 and 1% (v/v) BSA] was added and blocked at room temperature for 2 hours. The blocking solution was discarded and 100 μl of the purified 4-1BB antibody obtained in Example 2 was added per well. After incubated at 37° C. for 2 hours, the plate was washed 3 times with a plate-washing solution [PBS containing 0.01% (v/v) Tween20]. A secondary antibody (purchased from Sigma) labeled with HRP (horseradish peroxidase) was added, and after incubated at 37° C. for 2 hours, the plate was washed 3 times with a plate-washing solution [PBS containing 0.01% (v/v) Tween20]. 100 μl of TMB substrate was added per well. After incubated for 30 minutes at room temperature, 100 μl of stop buffer (1.0N HCl) was added per well. The A450 nm values were read using an ELISA plate reader (SpectraMax 384plus, Molecular Device).
A general note: An ELISA detects its analyte on a solid surface through an enzyme-linked reagent.
Turning to B1, the OD450 nm was 2.68 OD450 nm.
Same read-out and setting: next, B2: 2.8 OD450 nm.
Same read-out and setting: for B3 the value was 2.75 OD450 nm.

A further assay has as its target T1, human 4-1BB, full length, on …. The assay is described as follows: FACS, CHOK1-h4-1BB cells; Ab 0.00013 ug/ml. The method, boiled down:
as §1
B1 returned an average fluorescence intensity of 4.1 MFI.
The molecule B2 came in with an average fluorescence intensity of 3.9 MFI.
The same measure, in the same setting: next, B3: 4 MFI.

Another assay concerns the target T2, monkey 4-1BB on CHOK1 cells. The assay can be described thus: FACS, CHOK1-c4-1BB cells; Ab 0.00013 ug/ml. Put shortly: as §1
For the molecule B1, the average fluorescence intensity was 2.5 MFI.
Turning to B2, the average fluorescence intensity was 2.5 MFI.
The same measure, in the same setting: for B3 the value was 2.4 MFI.

Another assay has as its target T3, hFc-tagged human 4-1BB extracellular …. The assay can be described thus: ELISA, coated human 4-1BB-hFc; Ab 0.08 ug/ml. The protocol: as §2
On to B1, for which the OD450 nm was 2.47 OD450 nm.
On the same count and under the same terms, for B2 the value was 2.64 OD450 nm; for B3, 2.59 OD450 nm.

Another assay concerns the target T4, monkey 4-1BB-his protein (monkey).
T4 construct: extracellular domain; Bought protein; also called extracellular domain of monkey-derived 4-1BB protein
The assay is described as follows: ELISA, coated monkey 4-1BB-his; Ab 0.4 ug/ml. The protocol:
as §2
Molecule B1 gave an OD450 nm of 1.32 OD450 nm.
Still for that read-out and setting: for B2 the value was 1.18 OD450 nm; for B3, 0.14 OD450 nm.

The target of a further assay is T3, hFc-tagged human 4-1BB extracellular …. The assay is described as follows: ELISA, coated human 4-1BB-hFc; Ab 0.0001 ug/ml. The procedure: as §2
For B1, the OD450 nm was determined as 0.06 OD450 nm.
As for B2, the OD450 nm stood at 0.07 OD450 nm.
On the same count and under the same terms, next, B3: 0.07 OD450 nm.

The target is the same in the next assay. The assay can be described thus: ELISA, coated human 4-1BB-hFc; Ab 0.0032 ug/ml. The procedure: as §2
In turn, B1 displayed an OD450 nm of 0.26 OD450 nm.
The same measure, in the same setting: next, B2: 0.33 OD450 nm; B3: 0.3 OD450 nm.

For another assay, the target named is T4, monkey 4-1BB-his protein. The assay is described as follows: ELISA, coated monkey 4-1BB-his; Ab 0.016 ug/ml. The procedure:
as §2
With B1, the OD450 nm was 0.13 OD450 nm.
With B2, the OD450 nm was 0.12 OD450 nm.
On the same count and under the same terms, next, B3: 0.07 OD450 nm.

The next assay has as its target T4, monkey 4-1BB-his protein. The assay is described as follows: ELISA, coated monkey 4-1BB-his; Ab 0.0032 ug/ml. The protocol:
as §2
B1 displayed an OD450 nm of 0.08 OD450 nm.
Same read-out and setting: for B2 the value was 0.07 OD450 nm.
On the same count and under the same terms, next, B3: 0.07 OD450 nm.
